Reference: PMC10384689

Substrate: Oc1ccc(/C=C/c2cc(O)cc(O)c2)cc1
Experiment: purified protein
Conditions: PBS pH 7.4, 30 °C, 10 min, 10 uM FAD, 1 mM NADH, 1 uM HpaB, 1 uM HpaC, apparent

B1: EcHpaBC (E. coli 4HPA3H; HpaB + HpaC) (Escherichia coli) (protein)
chain: MKPEDFRASTQRPFTGEEYLKSLQDGREIYIYGERVKDVTTHPAFRNAAASVAQLYDALHKPEMQDSLCWNTDTGSGGYTHKFFRVAKSADDLRHERDAIAEWSRLSYGWMGRTPDYKAAFGCALGGTPGFYGQFEQNARNWYTRIQETGLYFNHAIVNPPIDRHLPTDKVKDVYIKLEKETDAGIIVSGAKVVATNSALTHYNMIGFGSAQVMGENPDFALMFVAPMDADGVKLISRASYEMVAGATGSPYDYPLSSRFDENDAILVMDNVLIPWENVLLYRDFDRCRRWTMEGGFARMYPLQACVRLAVKLDFITALLKKSLECTGTLEFRGVQADLGEVVAWRNTFWALSDSMCSEATPWVNGAYLPDHAALQTYRVLAPMAYAKIKNIIERNVTSGLIYLPSSARDLNNPQIDQYLAKYVRGSNGMDHVQRIKILKLMWDAIGSEFGGRHELYEINYSGSQDEIRLQCLRQAQSSGNMDKMMAMVDRCLSEYDQNGWTVPHLHNNDDINMLDKLLK
**Q.** Which results are given for B1?
**A.** Km: 670 ± 120 µM; kcat: 0.0135 s⁻¹; kcat/Km: 20 M⁻¹ s⁻¹
